Measurements published in article PMC3799435, “Dissecting the interactions of SERRATE with RNA and DICER-LIKE 1 in Arabidopsis microRNA precursor processing” (Nucleic Acids Research, 2013).

Experiments:
Conditions in all cases: both partners purified
[1] = molecular target: T1, DICER-LIKE 1 (DCL1), untagged recombinant (Arabidopsis thaliana, UniProt Q9SP32 1-1909); assay: SPR; Biacore T100; 1750 RU of DCL1 immobilised via amine groups on a CM5 chip; SE injected for 70 s at 20 nM; 20 mM Tris-HCl (pH 7.0), 2 mM β-ME, 0.005% surfactant P20, 50 mM or 150 mM NaCl
T1 construct: DICER-LIKE 1 (DCL1) of Arabidopsis thaliana, 214 kDa; cDNA amplified with primers from the start codon to the stop codon; one silent mutation introduced; no extra residues at the N-terminus after SUMOstar protease; also called native DCL1; source: Sf9 insect cells (baculovirus), purified (Ni-NTA, StrepTrap, SUMOstar protease, Ni-NTA flow-through, Superdex 200); not shown: His6, N-terminal, …

[2] = molecular target: T1, DICER-LIKE 1 (DCL1), untagged …; assay: SPR; Biacore T100; about 1750 RU of DCL1 immobilised via amine groups on a CM5 chip, no RNA; SE and its mutants injected for 70 s at 20 nM; 20 mM Tris-HCl (pH 7.0), 50 mM NaCl, 2 mM β-ME, 0.005% surfactant P20
[3] = molecular target: T1, DICER-LIKE 1 (DCL1), untagged …; assay: SPR; Biacore T100; about 1200 RU of DCL1 (injected at 16 nM) bound beforehand to 60 RU of biotin-labelled forked RNA on an SA chip; SE and its mutants then injected for 70 s at 20 nM; 20 mM Tris-HCl (pH 7.0), 50 mM NaCl, 2 mM β-ME, 0.005% surfactant P20; RU of mutants normalised to the RU of DCL1 bound

T1 sequence (Q9SP32 whole entry): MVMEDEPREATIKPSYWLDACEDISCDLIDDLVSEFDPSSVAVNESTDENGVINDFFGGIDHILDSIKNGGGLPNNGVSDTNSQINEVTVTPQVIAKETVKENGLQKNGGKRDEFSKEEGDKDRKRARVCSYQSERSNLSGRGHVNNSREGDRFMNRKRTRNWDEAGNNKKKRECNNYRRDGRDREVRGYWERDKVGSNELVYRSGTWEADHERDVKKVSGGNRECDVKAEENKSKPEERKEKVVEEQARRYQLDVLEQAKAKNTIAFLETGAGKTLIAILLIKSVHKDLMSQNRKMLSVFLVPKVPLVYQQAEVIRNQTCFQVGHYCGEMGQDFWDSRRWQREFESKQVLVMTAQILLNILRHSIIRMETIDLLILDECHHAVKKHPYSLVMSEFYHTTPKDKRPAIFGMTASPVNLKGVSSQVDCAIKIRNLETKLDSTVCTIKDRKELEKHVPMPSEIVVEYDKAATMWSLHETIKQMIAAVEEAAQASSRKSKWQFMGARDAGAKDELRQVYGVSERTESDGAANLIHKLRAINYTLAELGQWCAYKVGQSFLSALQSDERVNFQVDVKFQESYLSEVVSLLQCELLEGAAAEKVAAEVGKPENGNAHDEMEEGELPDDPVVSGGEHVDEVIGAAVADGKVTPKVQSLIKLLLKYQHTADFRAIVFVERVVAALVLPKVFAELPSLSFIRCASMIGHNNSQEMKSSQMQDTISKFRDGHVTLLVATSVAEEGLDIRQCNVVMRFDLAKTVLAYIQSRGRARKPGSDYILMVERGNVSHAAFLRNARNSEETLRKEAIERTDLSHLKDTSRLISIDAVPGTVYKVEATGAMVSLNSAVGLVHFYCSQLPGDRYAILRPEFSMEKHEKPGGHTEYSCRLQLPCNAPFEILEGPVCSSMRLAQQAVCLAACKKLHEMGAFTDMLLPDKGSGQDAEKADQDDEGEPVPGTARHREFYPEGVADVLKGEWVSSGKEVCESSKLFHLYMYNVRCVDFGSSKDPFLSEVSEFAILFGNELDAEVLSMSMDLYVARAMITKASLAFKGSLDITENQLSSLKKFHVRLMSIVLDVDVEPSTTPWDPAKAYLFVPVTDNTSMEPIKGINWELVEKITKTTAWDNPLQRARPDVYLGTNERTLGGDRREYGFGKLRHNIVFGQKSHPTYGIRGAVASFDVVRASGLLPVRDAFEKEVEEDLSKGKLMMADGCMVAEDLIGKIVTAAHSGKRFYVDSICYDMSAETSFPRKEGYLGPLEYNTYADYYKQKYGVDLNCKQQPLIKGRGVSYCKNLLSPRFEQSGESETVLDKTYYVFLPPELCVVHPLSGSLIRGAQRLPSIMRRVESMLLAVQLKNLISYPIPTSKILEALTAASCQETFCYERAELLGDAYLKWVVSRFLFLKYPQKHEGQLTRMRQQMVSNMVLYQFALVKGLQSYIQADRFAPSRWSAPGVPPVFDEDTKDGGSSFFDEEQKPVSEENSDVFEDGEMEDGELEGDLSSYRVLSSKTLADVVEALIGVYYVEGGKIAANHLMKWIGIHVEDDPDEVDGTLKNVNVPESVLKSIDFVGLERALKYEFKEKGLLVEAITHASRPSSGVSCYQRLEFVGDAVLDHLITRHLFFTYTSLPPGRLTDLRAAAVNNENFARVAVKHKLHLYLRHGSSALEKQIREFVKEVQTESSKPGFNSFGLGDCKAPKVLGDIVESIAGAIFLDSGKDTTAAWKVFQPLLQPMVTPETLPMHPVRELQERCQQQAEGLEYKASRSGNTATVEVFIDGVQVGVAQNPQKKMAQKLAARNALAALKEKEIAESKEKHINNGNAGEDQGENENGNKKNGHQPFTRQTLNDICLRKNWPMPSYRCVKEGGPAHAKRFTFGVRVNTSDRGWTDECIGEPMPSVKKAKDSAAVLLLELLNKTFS

B1: SERRATE (SE), untagged recombinant (natural protein, Arabidopsis thaliana, UniProt Q9ZVD0 1-720, looked up)
chain: MADVNLPPSDSVDNRLPEKSTSSSPPPPPPSSSLPQQEQEQDQQQLPLRRERDSRERRDERDIERPPPNRRERDRSPLPPPRRDYKRRPSLSPPPPYRDRRHSPPQRRSPPQKRYRRDDNGYDGRRGSPRGGYGPPDRRFGYDHGGGYDREMGGRPGYGDERPHGRFMGRYQDWEGGRGGYGDASNSGNPQRDGLMSYKQFIQELEDDILPSEAERRYQEYKSEYITTQKRAFFNTHKEEDWLKNKYHPTNLLSVIERRNDLAQKVAKDFLLDLQSGTLDLGPAVTALNKSGRTSEPNSEDEAAGVGKRKRHGMGGAKENELLSAAPKAPSFTSDPKRILTDVEQTQALVRKLDSEKKIEENVLQGSETEKSGREKLHSGSTGPVVIIRGLTSVKGLEGVELLDTLVTYLWRVHGLDYYGKVETNEAKGLRHVRAEGKVSDAKGDENESKFDSHWQERLKGQDPLEVMAAKEKIDAAATEALDPHVRKIRDEKYGWKYGCGAKGCTKLFHAAEFVYKHLKLKHTELVTELTTKVREELYFQNYMNDPNAPGGQPATQQSGPRDRPIRRKPSMENRLRDDRGGRRERDGRANGNDRNDRSEDQQRGDNDGGNPGEVGYDAFGGQGGVHVPPFLSDINPPPMLMPVPGAGPLGPFVPAPPEVAMQMFRDPSGPNPPFEGSGRGGPAPFLLSPAFRQDPRRLRSYQDLDAPEEEVTVIDYRSL
notes: SERRATE (SE) of Arabidopsis thaliana, 81 kDa, 720 amino acids; cDNA amplified with primers from the start codon to the stop codon; also called native SE; untagged SE; source: Sf9 insect cells (baculovirus), purified (Ni-NTA, StrepTrap, SUMOstar protease, Ni-NTA flow-through, Superdex 200); not shown: His6, N-terminal, cleaved; Strep-tag II, N-terminal, cleaved; SUMOstar, N-terminal, cleaved
[1]
  fold reduction in RUmax from 50 to 150 mM NaCl: 5 fold

B2: N-terminally hexahistidine-tagged wild-type SERRATE (SE) (natural protein, Arabidopsis thaliana, UniProt Q9ZVD0 1-720, looked up)
chain: MADVNLPPSDSVDNRLPEKSTSSSPPPPPPSSSLPQQEQEQDQQQLPLRRERDSRERRDERDIERPPPNRRERDRSPLPPPRRDYKRRPSLSPPPPYRDRRHSPPQRRSPPQKRYRRDDNGYDGRRGSPRGGYGPPDRRFGYDHGGGYDREMGGRPGYGDERPHGRFMGRYQDWEGGRGGYGDASNSGNPQRDGLMSYKQFIQELEDDILPSEAERRYQEYKSEYITTQKRAFFNTHKEEDWLKNKYHPTNLLSVIERRNDLAQKVAKDFLLDLQSGTLDLGPAVTALNKSGRTSEPNSEDEAAGVGKRKRHGMGGAKENELLSAAPKAPSFTSDPKRILTDVEQTQALVRKLDSEKKIEENVLQGSETEKSGREKLHSGSTGPVVIIRGLTSVKGLEGVELLDTLVTYLWRVHGLDYYGKVETNEAKGLRHVRAEGKVSDAKGDENESKFDSHWQERLKGQDPLEVMAAKEKIDAAATEALDPHVRKIRDEKYGWKYGCGAKGCTKLFHAAEFVYKHLKLKHTELVTELTTKVREELYFQNYMNDPNAPGGQPATQQSGPRDRPIRRKPSMENRLRDDRGGRRERDGRANGNDRNDRSEDQQRGDNDGGNPGEVGYDAFGGQGGVHVPPFLSDINPPPMLMPVPGAGPLGPFVPAPPEVAMQMFRDPSGPNPPFEGSGRGGPAPFLLSPAFRQDPRRLRSYQDLDAPEEEVTVIDYRSL
notes: SERRATE (SE) of Arabidopsis thaliana, 720 amino acids; tagged protein 86 kDa; primers from the start codon to the stop codon; myc tag and Strep tag II were inserted in the NotI site of the modified pENTR-D/TOPO vector, then moved to pDEST10; also called His-tagged SE; hexahistidine-tagged SE; source: Sf9 insect cells (baculovirus), purified (TALON, Superdex 200); not shown: His6, N-terminal, kept
[2]
  stoichiometry N: 0.7 SE:DCL1 molar ratio
[3]
  stoichiometry N: 2.4 SE:DCL1 molar ratio

B3: SE1–701, C-terminally truncated hexahistidine-tagged SERRATE (domain or fragment, Arabidopsis thaliana, UniProt Q9ZVD0 1-701, looked up)
chain: MADVNLPPSDSVDNRLPEKSTSSSPPPPPPSSSLPQQEQEQDQQQLPLRRERDSRERRDERDIERPPPNRRERDRSPLPPPRRDYKRRPSLSPPPPYRDRRHSPPQRRSPPQKRYRRDDNGYDGRRGSPRGGYGPPDRRFGYDHGGGYDREMGGRPGYGDERPHGRFMGRYQDWEGGRGGYGDASNSGNPQRDGLMSYKQFIQELEDDILPSEAERRYQEYKSEYITTQKRAFFNTHKEEDWLKNKYHPTNLLSVIERRNDLAQKVAKDFLLDLQSGTLDLGPAVTALNKSGRTSEPNSEDEAAGVGKRKRHGMGGAKENELLSAAPKAPSFTSDPKRILTDVEQTQALVRKLDSEKKIEENVLQGSETEKSGREKLHSGSTGPVVIIRGLTSVKGLEGVELLDTLVTYLWRVHGLDYYGKVETNEAKGLRHVRAEGKVSDAKGDENESKFDSHWQERLKGQDPLEVMAAKEKIDAAATEALDPHVRKIRDEKYGWKYGCGAKGCTKLFHAAEFVYKHLKLKHTELVTELTTKVREELYFQNYMNDPNAPGGQPATQQSGPRDRPIRRKPSMENRLRDDRGGRRERDGRANGNDRNDRSEDQQRGDNDGGNPGEVGYDAFGGQGGVHVPPFLSDINPPPMLMPVPGAGPLGPFVPAPPEVAMQMFRDPSGPNPPFEGSGRGGPAPFLLSPAFRQDPRRLRS
notes: No cleavage step of the tag is described in the purification; also called C-terminal domain deletion; source: Sf9 insect cells (baculovirus), purified (TALON, Superdex 200)
[2]
  binding result: binds
